From publication PMC10716122

What was measured:
[1] = biological target: LINE-1 (L1) ORF1p (human) (UniProt Q9UN81); assay: not stated; formation of the ORF1p trimer with or without cGAS, Supplementary Fig. 2o; method not given
[2] = biological target: TRIM41 (UniProt Q8WV44); assay: co-immunoprecipitation; details: reference: wild-type cGAS

Substance “LINE-1 (L1) ORF1p (from UniProt Q9UN81 1-338) (natural protein)” has a stoichiometry N [1] of 3.

With cGAS (from UniProt Q8N884) S120A the “binding against the reference” value ([2]; sites S120) was “weaker”.

For cGAS (from UniProt Q8N884) S305A, the “binding against the reference” value ([2]; sites S305) was “weaker”.
